How the values were obtained:
Ded1 sNES = Ded1 sNES (Saccharomyces cerevisiae, UniProt P06634 =D+1-604, A2D;E6K;Q7K;V8F;Q9G;N10T;internal_change); assay: EMSA; 3 mM AMP-PNP; bound to the same extent as wild-type Ded1; EMSA: 50 mM Tris pH 7.8, 60 mM NaCl, 2 mM MgCl2, 0.1 mg/mL BSA, 5% glycerol, 1 U/uL RNasin Plus, 0.01% NP-40, 1 mM DTT; 900 nM Ded1, 10 nM RNA, 20 min room temperature, then 41mer competitor RNA (27 uM solution) 1 min before 7% native PAGE at 4 C; details: protein: recombinant; tags: His-tag removed with preScission protease; N-terminal GP from vector; single-stranded
Xpo1;Ran[GTP] Q71L = Xpo1;Ran[GTP] Q71L (Saccharomyces cerevisiae;Saccharomyces …, UniProt P30822;P32835 1-1071;1-219, |Q71L); assay: EMSA; no Ded1; no significant supershift; EMSA: 50 mM Tris pH 7.8, 60 mM NaCl, 2 mM MgCl2, 0.1 mg/mL BSA, 5% glycerol, 1 U/uL RNasin Plus, 0.01% NP-40, 1 mM DTT; 900 nM Ded1, 10 nM RNA, 20 min room temp
Ded1 wild type = Ded1 wild type (Saccharomyces cerevisiae, UniProt P06634 1-604); assay: EMSA; 3 mM AMP-PNP; challenged with unlabeled 41mer RNA; EMSA: 50 mM Tris pH 7.8, 60 mM NaCl, 2 mM MgCl2, 0.1 mg/mL BSA, 5% glycerol, 1 U/uL RNasin Plus, 0.01% NP-40, 1 mM DTT; 900 nM Ded1, 10 nM RNA, 20 min room temperature, then 41mer competitor RNA (27 uM solution) 1 min before 7% native PAGE at 4 C; details: protein: recombinant; tags: His-tag removed with preScission protease; N-terminal GP from vector; single-stranded

B1: 25mer FAM-labeled ssRNA (ssRNA)
RNA: CGAAUUCAAAACAAAACAAAACUAG
binding result (Ded1 sNES): binds | binding result (Xpo1;Ran[GTP] Q71L): no binding | binding result (Ded1 wild type): binds

— publication PMC4484809, “Formation of a Trimeric Xpo1-Ran[GTP]-Ded1 Exportin Complex Modulates ATPase and Helicase Activities of Ded1”
